Laboratory results from US20060003931A1.

Columns and labels:
[1] = target: Met-IgG fusion protein (Homo sapiens (Human)) (UniProt P08581); experiment: HGF β/Met-IgG competition ELISA; tracer biotinylated HGF β
[2] = target: Met-IgG fusion protein (Homo sapiens (Human)) (UniProt P08581); experiment: HGF β/Met-IgG competition ELISA; tracer 250 nM biotinylated wildtype HGF β

UniProt P08581, sequence (P08581 25-930 limits assumed, form in doubt): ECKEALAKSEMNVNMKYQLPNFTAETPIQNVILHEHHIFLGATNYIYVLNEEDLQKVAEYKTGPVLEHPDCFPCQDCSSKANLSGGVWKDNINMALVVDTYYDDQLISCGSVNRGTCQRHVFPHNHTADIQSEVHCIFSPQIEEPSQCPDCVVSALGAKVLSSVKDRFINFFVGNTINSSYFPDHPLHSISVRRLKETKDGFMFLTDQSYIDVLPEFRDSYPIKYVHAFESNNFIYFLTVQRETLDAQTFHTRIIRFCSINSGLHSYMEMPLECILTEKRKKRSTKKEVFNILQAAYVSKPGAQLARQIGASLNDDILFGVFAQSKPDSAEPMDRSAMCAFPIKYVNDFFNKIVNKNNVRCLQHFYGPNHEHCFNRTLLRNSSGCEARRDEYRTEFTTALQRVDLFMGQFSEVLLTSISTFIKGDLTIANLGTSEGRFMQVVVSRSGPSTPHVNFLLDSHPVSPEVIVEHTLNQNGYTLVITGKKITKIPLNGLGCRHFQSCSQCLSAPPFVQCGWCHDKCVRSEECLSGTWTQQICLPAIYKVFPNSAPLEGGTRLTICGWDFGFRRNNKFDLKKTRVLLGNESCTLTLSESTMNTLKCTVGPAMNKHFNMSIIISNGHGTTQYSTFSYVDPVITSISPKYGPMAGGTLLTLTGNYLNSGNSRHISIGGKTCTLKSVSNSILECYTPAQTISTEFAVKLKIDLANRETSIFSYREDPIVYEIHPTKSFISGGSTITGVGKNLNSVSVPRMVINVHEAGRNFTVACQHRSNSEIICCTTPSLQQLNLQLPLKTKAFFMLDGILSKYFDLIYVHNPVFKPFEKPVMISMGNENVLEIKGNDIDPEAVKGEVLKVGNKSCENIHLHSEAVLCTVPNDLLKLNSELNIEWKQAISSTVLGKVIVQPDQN

relative IC50 (normalized to HGF β) (relative to HGF β) [1]: 21
IC50 [2]: 11.6 µM
fold reduced binding against HGF β [2]: 13.5 fold
Substance: proHGF β (HGF residues Asn479 to Ser728 with R494E) (from UniProt P14210 479-728) (ligand)
